Positions count from the first letter of the chain named. Names may count otherwise. Read-outs that look alike come from different tables or passages of the source. One block for each binder: values may come before it.
How the values were obtained:
human IL-13 [1] = target: T1, human IL-13 (human, UniProt P35225 35-146, limits assumed); experiment: cell-based or functional assay
human IL-13 [2] = target: T1, human IL-13; experiment: SPR, hIL-13 from Peprotech (cat nr 200-13)
cyno TSLP-Fc [3] = target: T2, cyno TSLP-Fc (cynomolgus monkey, UniProt A0A7N9CAT7 29-159); experiment: SPR, cyno TSLP-hFc
T2 construct: also called cyno TSLP-hFc; not shown: human Fc part and any linker not described

hTSLP-Fc [4] = target: T3, hTSLP-Fc (human, UniProt Q969D9 29-159); experiment: SPR, hTSLP-hFc
T3 construct: also called hTSLP-hFc; hTLSP-Fc; not shown: human Fc part and any linker not described

cyno TSLP [5] = target: T4, cyno TSLP (cynomolgus monkey, UniProt A0A7N9CAT7 29-159); experiment: SPR, cyno TSLP
T4 construct: also called cynomolgus monkey TSLP

human TSLP [6] = target: T5, human TSLP (human, UniProt Q969D9 29-159); experiment: SPR, hTSLP
T5 construct: also called hTSLP; hTSP

cyno TSLP-Fc [7] = target: T2, cyno TSLP-Fc; experiment: SPR; the KD column is on cyno TSLP-hFc
cyno TSLP [8] = target: T4, cyno TSLP; experiment: SPR, cyno TSLP; remark: listed apart in the source
human TSLP [9] = target: T5, human TSLP; experiment: SPR, hTSLP; remark: listed apart in the source
human TSLP [10] = target: T5, human TSLP; experiment: AlphaScreen; hTSLP:hTSLPR:hIL7Rα ternary complex
human TSLP [11] = target: T5, human TSLP; experiment: AlphaScreen, purified ISVD; hTSLP:hTSLPR:hIL7Rα ternary complex
human TSLP [12] = target: T5, human TSLP; experiment: AlphaScreen, purified ISVD; hTSLP to hTSLPR
cyno TSLP-Fc [13] = target: T2, cyno TSLP-Fc; experiment: SPR (BIAcore T100), Fc fusion captured by anti-huIgG
hTSLP-Fc [14] = target: T3, hTSLP-Fc; experiment: as above
cyno TSLP-Fc [15] = target: T2, cyno TSLP-Fc; experiment: SPR (ProteOn XPR36), periplasmic extract over immobilised Fc fusion
hTSLP-Fc [16] = target: T3, hTSLP-Fc; experiment: as above
cyno TSLP-Fc [17] = target: T2, cyno TSLP-Fc; experiment: cell-based or functional assay
hTSLP-Fc [18] = target: T3, hTSLP-Fc; experiment: cell-based or functional assay
human IL-13 [19] = target: T1, human IL-13; experiment: cell-based or functional assay; remark: listed apart in the source
human IL-13 [20] = target: T1, human IL-13; experiment: AlphaScreen; hIL-13:hIL-13Rα1:hIL4Rα ternary complex
human IL-13 [21] = target: T1, human IL-13; experiment: AlphaScreen; hIL-13 to hIL-13Rα1-hFc
cyno IL-13 [22] = target: T6, cyno IL-13 (cynomolgus monkey, UniProt Q0PW92 21-132); experiment: cell-based or functional assay
cyno IL-13 [23] = target: T6, cyno IL-13; experiment: cell-based or functional assay; remark: listed apart in the source
human IL-13 [24] = target: T1, human IL-13; experiment: cell-based or functional assay; remark: listed apart in the source
human IL-13 [25] = target: T1, human IL-13; experiment: SPR, hIL-13
hIL13-Fc = target: T7, hIL13-Fc (human, UniProt P35225 25-146); experiment: SPR (ProteOn XPR36), periplasmic extract over immobilised Fc fusion
T7 construct: not shown: Fc part and any linker not described

cyno IL13-Fc = target: T8, cyno IL13-Fc (cynomolgus monkey, UniProt Q0PW92 11-132); experiment: as above
T8 construct: not shown: Fc part and any linker not described

human IL-13 [26] = target: T1, human IL-13; experiment: AlphaScreen, purified ISVD; hIL-13:hIL-13Rα1:hIL4Rα ternary complex
human IL-13 [27] = target: T1, human IL-13; experiment: AlphaScreen, purified ISVD; hIL-13 to hIL-13Rα1-hFc
human IL-13 [28] = target: T1, human IL-13; experiment: cell-based or functional assay; remark: listed apart in the source
human IL-13 [29] = target: T1, human IL-13; experiment: SPR, hIL-13 from Peprotech (cat nr 200-13); remark: listed apart in the source

B1: F027100019 (VHH)
VHH: DVQLVESGGGVVQPGGSLRLSCAASGRTFSSYRMGWFRQAPGKEREFVAALSGDGYSTYTANSVKGRFTISRDNSKNTVYLQMNSLRPEDTALYYCAAKLQYVSGWSYDYPYWGQGTLVTVSS
notes: Expressed in E. coli, purified by IMAC; also called F0107004B02 (E1D, L11V, A14P, N64K, S65G, A74S, K83R, I89L)
IC50 (nM) Eotaxin release assay (human IL-13 [1]): 47 nM
Kd (human IL-13 [2]): 34 nM
koff (human IL-13 [2]): 0.0012 s⁻¹
kon (human IL-13 [2]): 35000 M⁻¹ s⁻¹

B2: F010704099 (VHH)
VHH: EVQLVESGGGLVQPGGSLRLSCAASGFTFADYDYDIGWFRQAPGKEREGVSCISNRDGSTYYADSVKGRFTISRDNSKNTVYLQMNSLRPEDTAVYYCAVEIHCDDYGVENFDFDPWGQGTLVTVSS
notes: E. coli, IMAC; also called F0107529F10 (A14P, T60A, S71R, A74S, S79Y, K83R)
Kd (cyno TSLP-Fc [3]): 3.3 nM
Kd (hTSLP-Fc [4]): 0.038 nM
koff (cyno TSLP [5]): 0.0018 s⁻¹
koff (human TSLP [6]): 7.7e-05 s⁻¹
fold lower affinity against parental ISVD F0107529F10 (cyno TSLP-Fc [7]): 2 fold

B3: F010704076 (VHH)
VHH: EVQLVESGGGLVQPGGSLRLSCAASGSGFGVNILYWYRQAAGIERELIASITSGGITNYVDSVKGRFTISRDNSENTMYLQMNSLRAEDTGVYYCASRNIFDGTTEWGQGTLVTVSS
notes: E. coli, IMAC; also called F0107501A02 (A14P, E16G, A74S, K83R)
koff (cyno TSLP [8]): 0.0016 s⁻¹
koff (human TSLP [9]): 6.2e-05 s⁻¹
IC50 (human TSLP [10]): 0.27 nM

B8: F010700014 (VHH)
chain: EVQLVESGGGLVQAGGSLRLSCAASGRTFSSYRMGWFRQAPGKEREFVAALSGDGYSTYTANSVNSRFTISRDNAKNTVYLQMNSLKPEDTAIYYCAAKLQYVSGWSYDYPYWGQGTLVTVSSGGGGSGGGGSGGGGSGGGGSGGGGSGGGGSGGGGSEVQLVESGGGLVQAGGSLRLSCAASGRTFSSYRMGWFRQAPGKEREFVAALSGDGYSTYTANSVNSRFTISRDNAKNTVYLQMNSLKPEDTAIYYCAAKLQYVSGWSYDYPYWGQGTLVTVSS
notes: Bivalent anti-IL-13 construct of two VHHs, Pichia pastoris, FLAG3-HIS6-tagged; also called F0107004B02-35GS-F0107004B02; not shown: FLAG3-HIS6 tag
% inhibition (human IL-13 [21]): 84%
IC50 (human IL-13 [21]): 0.27 nM
IC50, TF1 proliferation assay, 200 pM hIL13 (human IL-13 [19]): 9.4e-08 M
% inhibition (human IL-13 [20]): 98%
IC50 (human IL-13 [20]): 4.8 nM

B9: F010700029 (bispecific antibody)
chain: EVQLVESGGGLVQAGGSLRLSCAASGRTFSSYRMGWFRQAPGKEREFVAALSGDGYSTYTANSVNSRFTISRDNAKNTVYLQMNSLKPEDTAIYYCAAKLQYVSGWSYDYPYWGQGTLVTVSSGGGGSGGGGSGGGGSGGGGSGGGGSGGGGSGGGGSEVQLVESGGGLVQPGGSLRLSCAASGFTFNNYAMKWVRQAPGKGLEWVSSITTGGGSTDYADSVKGRFTISRDNRKNTLYLQMNSLKPEDTAVYYCANVPFGYYSEHFSGLSFDYRGQGTLVTVSS
notes: Biparatopic anti-IL-13 construct of two VHHs, Pichia pastoris, FLAG3-HIS6-tagged; also called F0107004B02-35GS-F0107004B06; not shown: FLAG3-HIS6 tag
% inhibition (human IL-13 [21]): 99%
IC50 (human IL-13 [21]): 0.31 nM
IC50, TF1 proliferation assay, 200 pM cyno IL13 (cyno IL-13 [22]): 2.5e-10 M
IC50, TF1 proliferation assay, 200 pM hIL13 (human IL-13 [19]): 2e-11 M
IC50, IL-13 induced A549 eotaxin release assay (cyno IL-13 [23]): 0.15 nM
IC50, IL-13 induced A549 eotaxin release assay (human IL-13 [24]): 0.21 nM
% inhibition (human IL-13 [20]): 100%
IC50 (human IL-13 [20]): 3 nM

B10: F0107004B06 (VHH)
VHH: EVQLVESGGGLVQPGGSLRLSCAASGFTFNNYAMKWVRQAPGKGLEWVSSITTGGGSTDYADSVKGRFTISRDNRKNTLYLQMNSLKPEDTAVYYCANVPFGYYSEHFSGLSFDYRGQGTLVTVSS
notes: Wild-type anti-IL-13 ISVD; also called F010704B06; F107004B06; not shown: c-myc, His6 tag of the purified protein
Kd (human IL-13 [25]): 26 nM
koff (human IL-13 [25]): 0.0033 s⁻¹
kon (human IL-13 [25]): 250000 M⁻¹ s⁻¹
koff (hIL13-Fc): 0.0063 s⁻¹
koff (cyno IL13-Fc): 0.0089 s⁻¹
IC50 (human IL-13 [26]): 6.7 nM
IC50 (human IL-13 [27]): 61 nM
IC50, IL-13-induced TF-1 proliferation assay (human IL-13 [28]): 10000 nM

B11: F027100183 (VHH)
VHH: B10 VHH with L11V, R75S, K87R, V93L
notes: E. coli, IMAC; also called F0107004B06 (L11V, R74S, K83R, V89L)
Kd (human IL-13 [29]): 27 nM
koff (human IL-13 [29]): 0.0075 s⁻¹
kon (human IL-13 [29]): 280000 M⁻¹ s⁻¹

Further lines, results first:

koff (cyno TSLP [8]): 0.0043 s⁻¹
koff (human TSLP [9]): 0.00012 s⁻¹
B4: F027400160 (VHH)
VHH: B3 VHH with L11V, V92L
notes: E. coli, IMAC; also called F0107501A02 (L11V, A14P, E16G, A74S, K83R, V89L)

koff (cyno TSLP [8]): 0.0015 s⁻¹
IC50 (human TSLP [11]): 0.35 nM
IC50 (human TSLP [12]): 0.3 nM
Kd (cyno TSLP-Fc [13]): 25 nM
koff (cyno TSLP-Fc [13]): 0.0018 s⁻¹
kon (cyno TSLP-Fc [13]): 73000 M⁻¹ s⁻¹
Kd (hTSLP-Fc [14]): 0.51 nM
koff (hTSLP-Fc [14]): 5.7e-05 s⁻¹
kon (hTSLP-Fc [14]): 110000 M⁻¹ s⁻¹
koff (human TSLP [9]): 5.4e-05 s⁻¹
IC50 (human TSLP [10]): 0.28 nM
koff (cyno TSLP-Fc [15]): 0.00066 s⁻¹
koff (hTSLP-Fc [16]): 3.6e-05 s⁻¹
IC50, TSLP-induced BaF3 cell proliferation assay (cyno TSLP-Fc [17]): > 1000 nM
IC50, TSLP-induced BaF3 cell proliferation assay (hTSLP-Fc [18]): > 1000 nM
B5: F0107501A02 (VHH)
VHH: B3 VHH with P14A, G16E, S74A, R86K
notes: Wild-type anti-TSLP ISVD; not shown: c-myc, His6 tag of the purified protein

IC50, TF1 proliferation assay, 200 pM hIL13 (human IL-13 [19]): 1e-07 M
% inhibition (human IL-13 [20]): 99%
IC50 (human IL-13 [20]): 0.66 nM
B6: F010700031 (VHH)
chain: EVQLVESGGGLVQPGGSLRLSCAASGFTFNNYAMKWVRQAPGKGLEWVSSITTGGGSTDYADSVKGRFTISRDNRKNTLYLQMNSLKPEDTAVYYCANVPFGYYSEHFSGLSFDYRGQGTLVTVSSGGGGSGGGGSGGGGSGGGGSGGGGSGGGGSGGGGSEVQLVESGGGLVQPGGSLRLSCAASGFTFNNYAMKWVRQAPGKGLEWVSSITTGGGSTDYADSVKGRFTISRDNRKNTLYLQMNSLKPEDTAVYYCANVPFGYYSEHFSGLSFDYRGQGTLVTVSS
notes: Bivalent anti-IL-13 construct of two VHHs, Pichia pastoris, FLAG3-HIS6-tagged; also called F0107004B06-35GS-F0107004B06; not shown: FLAG3-HIS6 tag

% inhibition (human IL-13 [21]): 99%
IC50 (human IL-13 [21]): 0.13 nM
IC50, TF1 proliferation assay, 200 pM hIL13 (human IL-13 [19]): 1.2e-08 M
% inhibition (human IL-13 [20]): 100%
IC50 (human IL-13 [20]): 3.4 nM
B7: F010700003 (bispecific antibody)
chain: EVQLVESGGGLVQPGGSLRLSCAASGFTFNNYAMKWVRQAPGKGLEWVSSITTGGGSTDYADSVKGRFTISRDNRKNTLYLQMNSLKPEDTAVYYCANVPFGYYSEHFSGLSFDYRGQGTLVTVSSGGGGSGGGGSGGGGSGGGGSGGGGSGGGGSGGGGSEVQLVESGGGLVQAGGSLRLSCAASGRTFSSYRMGWFRQAPGKEREFVAALSGDGYSTYTANSVNSRFTISRDNAKNTVYLQMNSLKPEDTAIYYCAAKLQYVSGWSYDYPYWGQGTLVTVSS
notes: Biparatopic anti-IL-13 construct of two VHHs, expressed in Pichia pastoris as FLAG3-HIS6-tagged protein; also called F0107004B06-35GS-F0107004B02; not shown: FLAG3-HIS6 tag
